# T1: APBA1_2, Q02410
# T1 sequence (Q02410 742-832, limits assumed, looked up): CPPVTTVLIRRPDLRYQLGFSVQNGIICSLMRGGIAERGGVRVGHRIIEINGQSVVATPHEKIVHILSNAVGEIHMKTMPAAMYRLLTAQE
# T2: APBA2_1, Q99767
# T2 sequence (Q99767 563-664, limits assumed, looked up): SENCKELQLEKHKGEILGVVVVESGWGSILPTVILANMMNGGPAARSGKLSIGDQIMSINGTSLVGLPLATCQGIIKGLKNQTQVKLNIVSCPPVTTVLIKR
# T3: DFNB31_1, Q9P202
# T3 sequence (Q9P202 135-233, limits assumed, looked up): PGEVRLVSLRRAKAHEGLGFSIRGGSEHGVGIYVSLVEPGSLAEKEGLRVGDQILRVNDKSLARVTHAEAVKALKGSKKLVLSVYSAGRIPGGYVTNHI
# T4: DFNB31_2, Q9P202
# T4 sequence (Q9P202 274-371, limits assumed, looked up): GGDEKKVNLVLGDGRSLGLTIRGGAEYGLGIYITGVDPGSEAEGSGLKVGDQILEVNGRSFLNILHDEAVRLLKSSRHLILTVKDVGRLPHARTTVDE
# T5: GRIP1_5, Q9Y3R0
# T5 sequence (Q9Y3R0 568-668, limits assumed, looked up): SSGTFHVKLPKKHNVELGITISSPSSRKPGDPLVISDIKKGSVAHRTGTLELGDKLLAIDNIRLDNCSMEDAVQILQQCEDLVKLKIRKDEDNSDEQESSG
# T6: HTRA4, P83105
# T6 sequence (P83105 378-476, limits assumed, looked up): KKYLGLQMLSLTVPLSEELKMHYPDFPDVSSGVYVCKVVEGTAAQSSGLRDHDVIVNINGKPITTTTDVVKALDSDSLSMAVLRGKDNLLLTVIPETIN
# T7: LNX2_3, Q8N448
# T7 sequence (Q8N448 463-564, limits assumed, looked up): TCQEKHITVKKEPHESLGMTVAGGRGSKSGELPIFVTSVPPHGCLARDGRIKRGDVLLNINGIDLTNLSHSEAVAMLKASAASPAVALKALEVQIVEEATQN
# T8: LRRC7, Q96NW7
# T8 sequence (Q96NW7 1440-1537, limits assumed, looked up): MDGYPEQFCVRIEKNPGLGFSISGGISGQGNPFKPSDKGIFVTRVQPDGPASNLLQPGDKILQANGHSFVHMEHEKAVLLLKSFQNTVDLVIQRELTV
# T9: NHERF3_1, Q5T2W1
# T9 sequence (Q5T2W1 4-100, limits assumed, looked up): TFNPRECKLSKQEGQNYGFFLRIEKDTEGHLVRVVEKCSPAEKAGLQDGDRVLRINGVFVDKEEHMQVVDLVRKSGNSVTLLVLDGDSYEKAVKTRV
# T10: PDZD7_3, Q9H5P4
# T10 sequence (Q9H5P4 857-944, limits assumed, looked up): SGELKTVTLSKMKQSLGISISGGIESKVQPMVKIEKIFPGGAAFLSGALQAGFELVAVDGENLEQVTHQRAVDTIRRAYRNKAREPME
# T11: SIPA1L2, Q9P2F8
# T11 sequence (Q9P2F8 945-1036, limits assumed, looked up): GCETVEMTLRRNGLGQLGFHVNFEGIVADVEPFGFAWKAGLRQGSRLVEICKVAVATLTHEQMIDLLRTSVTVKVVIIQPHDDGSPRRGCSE
# T12: TIAM2, Q8IVF5
# T12 sequence (Q8IVF5 885-986, limits assumed, looked up): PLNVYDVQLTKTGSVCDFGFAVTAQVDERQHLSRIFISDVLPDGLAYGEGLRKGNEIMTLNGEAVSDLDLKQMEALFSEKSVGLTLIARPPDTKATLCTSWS
# T13: TJP3_3, O95049
# T13 sequence (O95049 375-456, limits assumed, looked up): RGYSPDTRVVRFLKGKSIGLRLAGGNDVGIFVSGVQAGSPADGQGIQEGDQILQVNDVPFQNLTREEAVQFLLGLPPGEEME
# Molecular target: T1, APBA1_2, Q02410
# Test: holdup assay
# Set-up: key: below the threshold = too weak to quantify, mostly under pKd 3.1 to 4
# Conditions: plain residues with an end cap or a label only (N-terminal biotin on a linker: ado-ado)
row,Binder,pKd
1,"ADRDHASDQL [CTBP1, Q13363]",below the threshold
2,"GSSSKEGTSV [RRBP1, Q9P2E9]",4.38

# Molecular target: T2, APBA2_1, Q99767
# Test: holdup assay
# Set-up: key: below the threshold = too weak to quantify, mostly under pKd 3.1 to 4
# Conditions: plain residues with an end cap or a label only (N-terminal biotin on a linker: ado-ado)
row,Binder,pKd
1,"ADRDHASDQL [CTBP1, Q13363]",below the threshold
2,"GSSSKEGTSV [RRBP1, Q9P2E9]",below the threshold

# Molecular target: CASK, O14936
# Test: holdup assay
# Set-up: key: below the threshold = too weak to quantify, mostly under pKd 3.1 to 4
# Conditions: plain residues with an end cap or a label only (N-terminal biotin on a linker: ado-ado)
# CASK, O14936, sequence (O14936 487-570): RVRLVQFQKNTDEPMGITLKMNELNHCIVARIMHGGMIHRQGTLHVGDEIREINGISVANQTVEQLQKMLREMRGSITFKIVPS
row,Binder,pKd
1,"ADRDHASDQL [CTBP1, Q13363]",below the threshold
2,"GSSSKEGTSV [RRBP1, Q9P2E9]",below the threshold

# Molecular target: T3, DFNB31_1, Q9P202
# Test: holdup assay
# Set-up: key: below the threshold = too weak to quantify, mostly under pKd 3.1 to 4
# Conditions: plain residues with an end cap or a label only (N-terminal biotin on a linker: ado-ado)
row,Binder,pKd
1,"ADRDHASDQL [CTBP1, Q13363]",below the threshold
2,"GSSSKEGTSV [RRBP1, Q9P2E9]",3.8

# Molecular target: T4, DFNB31_2, Q9P202
# Test: holdup assay
# Set-up: key: below the threshold = too weak to quantify, mostly under pKd 3.1 to 4
# Conditions: plain residues with an end cap or a label only (N-terminal biotin on a linker: ado-ado)
row,Binder,pKd
1,"ADRDHASDQL [CTBP1, Q13363]",below the threshold
2,"GSSSKEGTSV [RRBP1, Q9P2E9]",below the threshold

# Molecular target: DLG1_1, Q12959
# Test: holdup assay
# Set-up: key: below the threshold = too weak to quantify, mostly under pKd 3.1 to 4
# Conditions: plain residues with an end cap or a label only (N-terminal biotin on a linker: ado-ado)
row,Binder,pKd
1,"ADRDHASDQL [CTBP1, Q13363]",below the threshold
2,"GSSSKEGTSV [RRBP1, Q9P2E9]",4.02

# Molecular target: DLG1_2, Q12959
# Test: holdup assay
# Set-up: key: below the threshold = too weak to quantify, mostly under pKd 3.1 to 4
# Conditions: plain residues with an end cap or a label only (N-terminal biotin on a linker: ado-ado)
row,Binder,pKd
1,"ADRDHASDQL [CTBP1, Q13363]",below the threshold
2,"GSSSKEGTSV [RRBP1, Q9P2E9]",4.45

# Molecular target: DLG1_3, Q12959
# Test: holdup assay
# Set-up: key: below the threshold = too weak to quantify, mostly under pKd 3.1 to 4
# Conditions: plain residues with an end cap or a label only (N-terminal biotin on a linker: ado-ado)
row,Binder,pKd
1,"ADRDHASDQL [CTBP1, Q13363]",below the threshold
2,"GSSSKEGTSV [RRBP1, Q9P2E9]",3.57

# Molecular target: GIPC2, Q8TF65
# Test: holdup assay
# Set-up: key: below the threshold = too weak to quantify, mostly under pKd 3.1 to 4
# Conditions: plain residues with an end cap or a label only (N-terminal biotin on a linker: ado-ado)
# GIPC2, Q8TF65, sequence (Q8TF65 112-203): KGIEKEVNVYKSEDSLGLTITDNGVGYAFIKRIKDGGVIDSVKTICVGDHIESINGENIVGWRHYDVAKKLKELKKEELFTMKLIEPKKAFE
row,Binder,pKd
1,"ADRDHASDQL [CTBP1, Q13363]",below the threshold
2,"GSSSKEGTSV [RRBP1, Q9P2E9]",below the threshold

# Molecular target: T5, GRIP1_5, Q9Y3R0
# Test: holdup assay
# Set-up: key: below the threshold = too weak to quantify, mostly under pKd 3.1 to 4
# Conditions: plain residues with an end cap or a label only (N-terminal biotin on a linker: ado-ado)
row,Binder,pKd
1,"ADRDHASDQL [CTBP1, Q13363]",below the threshold
2,"GSSSKEGTSV [RRBP1, Q9P2E9]",below the threshold

# Molecular target: GRIP2_6, Q9C0E4
# Test: holdup assay
# Set-up: key: below the threshold = too weak to quantify, mostly under pKd 3.1 to 4
# Conditions: plain residues with an end cap or a label only (N-terminal biotin on a linker: ado-ado)
# GRIP2_6, Q9C0E4, sequence (Q9C0E4 648-740): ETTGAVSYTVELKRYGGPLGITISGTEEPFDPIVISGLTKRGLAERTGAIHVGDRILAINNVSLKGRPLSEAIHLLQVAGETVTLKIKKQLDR
row,Binder,pKd
1,"ADRDHASDQL [CTBP1, Q13363]",below the threshold
2,"GSSSKEGTSV [RRBP1, Q9P2E9]",below the threshold

# Molecular target: T6, HTRA4, P83105
# Test: holdup assay
# Set-up: key: below the threshold = too weak to quantify, mostly under pKd 3.1 to 4
# Conditions: plain residues with an end cap or a label only (N-terminal biotin on a linker: ado-ado)
row,Binder,pKd
1,"ADRDHASDQL [CTBP1, Q13363]",3.73
2,"GSSSKEGTSV [RRBP1, Q9P2E9]",3.9

# Molecular target: Inadl_3, Q8NI35
# Test: holdup assay
# Set-up: key: below the threshold = too weak to quantify, mostly under pKd 3.1 to 4
# Conditions: plain residues with an end cap or a label only (N-terminal biotin on a linker: ado-ado)
# Inadl_3, Q8NI35, sequence (Q8NI35 359-469): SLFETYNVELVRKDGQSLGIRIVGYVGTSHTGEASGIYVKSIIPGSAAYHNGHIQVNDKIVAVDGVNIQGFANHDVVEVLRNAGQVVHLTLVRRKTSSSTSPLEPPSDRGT
row,Binder,pKd
1,"ADRDHASDQL [CTBP1, Q13363]",below the threshold
2,"GSSSKEGTSV [RRBP1, Q9P2E9]",below the threshold

# Molecular target: T7, LNX2_3, Q8N448
# Test: holdup assay
# Set-up: key: below the threshold = too weak to quantify, mostly under pKd 3.1 to 4
# Conditions: plain residues with an end cap or a label only (N-terminal biotin on a linker: ado-ado)
row,Binder,pKd
1,"ADRDHASDQL [CTBP1, Q13363]",below the threshold
2,"GSSSKEGTSV [RRBP1, Q9P2E9]",below the threshold

# Molecular target: T8, LRRC7, Q96NW7
# Test: holdup assay
# Set-up: key: below the threshold = too weak to quantify, mostly under pKd 3.1 to 4
# Conditions: plain residues with an end cap or a label only (N-terminal biotin on a linker: ado-ado)
row,Binder,pKd
1,"ADRDHASDQL [CTBP1, Q13363]",below the threshold
2,"GSSSKEGTSV [RRBP1, Q9P2E9]",below the threshold

# Molecular target: MAGI2_6, Q86UL8
# Test: holdup assay
# Set-up: key: below the threshold = too weak to quantify, mostly under pKd 3.1 to 4
# Conditions: plain residues with an end cap or a label only (N-terminal biotin on a linker: ado-ado)
# MAGI2_6, Q86UL8, sequence (Q86UL8 1141-1229): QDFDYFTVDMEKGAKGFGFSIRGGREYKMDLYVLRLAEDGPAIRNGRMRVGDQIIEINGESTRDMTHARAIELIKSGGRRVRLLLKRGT
row,Binder,pKd
1,"ADRDHASDQL [CTBP1, Q13363]",below the threshold
2,"GSSSKEGTSV [RRBP1, Q9P2E9]",4.02

# Molecular target: MAST1, Q9Y2H9
# Test: holdup assay
# Set-up: key: below the threshold = too weak to quantify, mostly under pKd 3.1 to 4
# Conditions: plain residues with an end cap or a label only (N-terminal biotin on a linker: ado-ado)
# MAST1, Q9Y2H9, sequence (Q9Y2H9 962-1065): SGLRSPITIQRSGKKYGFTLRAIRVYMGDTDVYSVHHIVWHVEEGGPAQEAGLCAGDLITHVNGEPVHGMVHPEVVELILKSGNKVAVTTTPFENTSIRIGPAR
row,Binder,pKd
1,"ADRDHASDQL [CTBP1, Q13363]",below the threshold
2,"GSSSKEGTSV [RRBP1, Q9P2E9]",4.32

# Molecular target: NHERF2_2, Q15599
# Test: holdup assay
# Set-up: key: below the threshold = too weak to quantify, mostly under pKd 3.1 to 4
# Conditions: plain residues with an end cap or a label only (N-terminal biotin on a linker: ado-ado)
# NHERF2_2, Q15599, sequence (Q15599 142-238): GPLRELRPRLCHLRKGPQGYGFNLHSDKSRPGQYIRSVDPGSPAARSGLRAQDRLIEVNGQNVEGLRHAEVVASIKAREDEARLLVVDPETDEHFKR
row,Binder,pKd
1,"ADRDHASDQL [CTBP1, Q13363]",3.89
2,"GSSSKEGTSV [RRBP1, Q9P2E9]",3.51

# Molecular target: T9, NHERF3_1, Q5T2W1
# Test: holdup assay
# Set-up: key: below the threshold = too weak to quantify, mostly under pKd 3.1 to 4
# Conditions: plain residues with an end cap or a label only (N-terminal biotin on a linker: ado-ado)
row,Binder,pKd
1,"ADRDHASDQL [CTBP1, Q13363]",4.5
2,"GSSSKEGTSV [RRBP1, Q9P2E9]",below the threshold

# Molecular target: NHERF4_2, Q86UT5
# Test: holdup assay
# Set-up: key: below the threshold = too weak to quantify, mostly under pKd 3.1 to 4
# Conditions: plain residues with an end cap or a label only (N-terminal biotin on a linker: ado-ado)
# NHERF4_2, Q86UT5, sequence (Q86UT5 220-308): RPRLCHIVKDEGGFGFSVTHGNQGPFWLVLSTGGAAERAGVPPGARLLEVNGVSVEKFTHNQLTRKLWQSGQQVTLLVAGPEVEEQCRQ
row,Binder,pKd
1,"ADRDHASDQL [CTBP1, Q13363]",below the threshold
2,"GSSSKEGTSV [RRBP1, Q9P2E9]",below the threshold

# Molecular target: T10, PDZD7_3, Q9H5P4
# Test: holdup assay
# Set-up: key: below the threshold = too weak to quantify, mostly under pKd 3.1 to 4
# Conditions: plain residues with an end cap or a label only (N-terminal biotin on a linker: ado-ado)
row,Binder,pKd
1,"ADRDHASDQL [CTBP1, Q13363]",below the threshold
2,"GSSSKEGTSV [RRBP1, Q9P2E9]",4.28

# Molecular target: SCRIB_1, Q14160
# Test: holdup assay
# Set-up: key: below the threshold = too weak to quantify, mostly under pKd 3.1 to 4
# Conditions: plain residues with an end cap or a label only (N-terminal biotin on a linker: ado-ado)
# SCRIB_1, Q14160, sequence (Q14160 718-814): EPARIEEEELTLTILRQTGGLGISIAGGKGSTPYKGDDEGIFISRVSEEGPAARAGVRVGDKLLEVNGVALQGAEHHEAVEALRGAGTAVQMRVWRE
row,Binder,pKd
1,"ADRDHASDQL [CTBP1, Q13363]",below the threshold
2,"GSSSKEGTSV [RRBP1, Q9P2E9]",below the threshold

# Molecular target: T11, SIPA1L2, Q9P2F8
# Test: holdup assay
# Set-up: key: below the threshold = too weak to quantify, mostly under pKd 3.1 to 4
# Conditions: plain residues with an end cap or a label only (N-terminal biotin on a linker: ado-ado)
row,Binder,pKd
1,"ADRDHASDQL [CTBP1, Q13363]",below the threshold
2,"GSSSKEGTSV [RRBP1, Q9P2E9]",below the threshold

# Molecular target: T12, TIAM2, Q8IVF5
# Test: holdup assay
# Set-up: key: below the threshold = too weak to quantify, mostly under pKd 3.1 to 4
# Conditions: plain residues with an end cap or a label only (N-terminal biotin on a linker: ado-ado)
row,Binder,pKd
1,"ADRDHASDQL [CTBP1, Q13363]",below the threshold
2,"GSSSKEGTSV [RRBP1, Q9P2E9]",below the threshold

# Molecular target: T13, TJP3_3, O95049
# Test: holdup assay
# Set-up: key: below the threshold = too weak to quantify, mostly under pKd 3.1 to 4
# Conditions: plain residues with an end cap or a label only (N-terminal biotin on a linker: ado-ado)
row,Binder,pKd
1,"ADRDHASDQL [CTBP1, Q13363]",below the threshold
2,"GSSSKEGTSV [RRBP1, Q9P2E9]",below the threshold
